Measurements as given in patent US20230391872A1 (ANAPTYSBIO, published 2023).
Values joined by “and” are separate entries in the source; they are usually repeats but may differ in a detail not shown here. Equal entries are not always repeated.

Experiments:
[1] = molecular target: T1, human BTLA on cells (stably transfected 293c18 cells; human peripheral blood T and B cells) (human, UniProt Q7Z6A9 31-289); assay: competition flow cytometry on 293c18 cells with human BTLA; increase of the binding of DyLight 650-HVEM-Fc (100 nM) with the antibody concentration [panel A]
T1 construct: whole, on cells; the cells are named under assay; also called cell surface BTLA; full-length human BTLA
Protocol: 293c18 cells, clone 1E4 stably expressing human BTLA were harvested with Accutase solution (Millipore Sigma/Sigma-Aldrich) and washed once with PBS, 1% BSA. Cells were plated at 2×10⁵ /well in U-bottom 96-well plates and placed on ice. Purified antibodies at twice the indicated concentrations were serially diluted 3-fold in FACS buffer (PBS, 1% BSA, 0.02% sodium azide). Antibodies tested were human IgG4 isotype control antibody specific for hen egg lysozyme, a reference BTLA IgG4 antagonist antibody, and 6G3 IgG4 (APE10840.06). Trimeric HVEM/LIGHT complexes were pre-formed by mixing equimolar (60 nM each) amounts of DyLight 650-HVEM human IgG1 Fc and trimeric LIGHT-foldon-his and pre-incubating for 15 minutes at room temperature. Either DyLight 650-HVEM-Fc (final concentration 100 nM; FIG. 6A) or pre-formed DyLight 650-HVEM/LIGHT complexes (final concentration of HVEM/LIGHT, 30 nM each; FIG. 6B) were added to the diluted antibodies (final concentrations of antibodies as indicated) and incubated for 15 minutes on ice. […] Cells were washed once, resuspended in FACS buffer and analyzed for fluorescence on a BD FACSArray (BD Biosciences). Median fluorescence intensities (MFI) were graphed in GraphPad Prism (GraphPad Software, Inc.) and curves fit with log(agonist) vs. response (three parameters) least squares fit. […]

[2] = molecular target: T1, human BTLA on cells (stably transfected …); assay: flow cytometry (MFI) on 293c18 cells stably expressing human BTLA, goat anti-human kappa-PE detection, four-parameter fit [left panel (Hu BTLA 293c18 cells), EC50 box]
Protocol: 293c18 cell clone 1E4 stably expressing human BTLA construct or clone 1G5 stably expressing cynomolgus monkey BTLA were harvested with Accutase solution (Millipore Sigma/Sigma-Aldrich) and washed once with Phosphate-Buffered Saline, 1% BSA. 293c18 cynomolgus monkey BTLA cells were loaded with the lipophilic carbocyanine dye, DiD (2 μM, 1,1′-dioctadecyl-3,3,3′,3′-tetramenthylindodicarbocyanine; ThermoFisher Scientific) by rocking gently for 10 minutes at room temperature. DiD-stained cells were washed in PBS, 1% BSA and equal amounts of human BTLA 293c18 cells and cynomolgus monkey BTLA 293c18-DiD-stained cells were mixed. Cells (2×10⁵ total cells/sample) were incubated with the indicated concentrations of purified 6G3 IgG4 (two production lots, APE10840.03 and APE10840.04 (H Chain SEQ ID NO: 144, L Chain SEQ ID NO: 174)) or human IgG4 isotype control antibody specific for hen egg lysozyme with gentle shaking for 10 minutes at 4° C. in FACS buffer (PBS, 1% BSA, 0.02% sodium azide). […] Cells were washed and resuspended in FACS buffer and analyzed for fluorescence on a BD FACSArray (BD Biosciences). DiD stained cells expressing cynomolgus monkey BTLA (FIG. 3) were analyzed for median fluorescence intensity (MFI) separately from cells expressing human BTLA (FIG. 3). […]

[3] = molecular target: T2, cynomolgus monkey BTLA ECD-his (monomeric cynomolgus monkey BTLA-his) (cynomolgus monkey, UniProt A0A2K5W7M7 31-157); assay: SPR (Biacore T200), antibody captured on anti-human IgG chip, monomeric BTLA-his flowed at 60, 20, 6.7 and 2.2 nM, 1:1 binding model, 25 C [lower right panel (Cyno BTLA]
T2 construct: extracellular domain; also called cynomolgus monkey BTLA extracellular domain
T2 sequence: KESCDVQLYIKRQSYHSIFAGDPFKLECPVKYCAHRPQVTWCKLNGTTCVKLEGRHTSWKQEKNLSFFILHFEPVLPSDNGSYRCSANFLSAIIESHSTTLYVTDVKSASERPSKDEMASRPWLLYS
Protocol: Surface plasmon resonance (SPR) analyses were carried out using a Biacore T200 (GE Healthcare Life Sciences). Kinetic constants were determined using a 1:1 binding model in the Biacore T200 Evaluation Software to calculate on- and off-rates (kₐ and kd, respectively), and dissociation constants as a measure of overall affinity (KD). Anti-human IgG (GE Healthcare Life Sciences) was immobilized on a CMS chip using EDC-activated amine coupling chemistry (420 seconds contact at a flow rate of 10 μl/min). Antibodies (APE10585.04 6G3 IgG1 and APE10840.05 6G3 IgG4), each at 0.5 μg/m1) were captured in a 60 second contact with the flow cell using a flow rate of 10 μl/min. Monomeric human BTLA-his or cynomolgus monkey BTLA-his at 60 nM, 20 nM, 6.7 nM and 2.2 nM concentrations was flowed over captured antibody (480 seconds association, 1800 seconds dissociation). Runs were at 25° C. and used buffer containing 10 mM HEPES, pH 7.6, 150 mM NaCl, 3 mM EDTA, 0.05% polysorbate 20 (HBS-EP+, pH 7.6; Teknova) for the mobile phase and all dilutions. At the end of each cycle, bound antigen was removed by regeneration with two successive exposures (60 seconds and 90 seconds) to 3 M MgCl2 (30 μl/min). Sensorgrams and binding constants corresponding to the experiment are shown in FIG. 1 (human BTLA) and FIG. 1 (cynomolgus monkey BTLA). Antibody capture levels in resonance units (RU) are listed at the right side of each panel.

EC50 (read off the curve) [1]: ~0.7 nM
EC50 [2]: 1.69 nM and 1.79 nM
Kd [3]: 11.2 nM
koff [3]: 0.00393 s⁻¹
kon [3]: 351000 M⁻¹ s⁻¹
B1: 6G3 IgG4 anti-BTLA antibody (APE10840 / APE12839 / APE13308) (antibody, V domains shown)
VH: QVQLVQSGAEVKKPGSSVKVSCKASGYVFSTSWMNWVRQAPGQGLEWMGRIYPGDADTNYVGKFKGRVTITADKSTTTAYMELSSLRSEDTAVYFCAKSGTFNFGNYRWYFDVWGKGTTVTVSS
VL: AIQLTQSPSSLSASVGDRVTITCRVSENIYSHLAWYQQKPGKAPKLLIYAATNLALGVPSRFSGSGSGTDYTLTISSLQPEDFATYYCQLFWGPPLTFGGGTKVEIKR
notes: Humanized antibody from a mouse hybridoma, tested as human IgG4 (detected with anti-human kappa); Some assays used labelled lots (DyLight 650, AF647, biotin, DyL488); also called 6G3 antibody; APE10840.03
